Data as given in the DeepSol protein solubility set.

Assay: soluble on expression in E. coli; label from the status in PepcDB or PDB records

Row | Sequence | soluble on expression in E. coli
1 | MGSDKIHHHHHHMETGLLLTLLNKTTSLSVNQKTGIEVVSCTFNDLINTFQKAIPNTNIKGQLCIPEYQRPYVWKEKQINRLLDDFIEYYKNTDNDKPLFYLGSIIVHKDEGTLKIIDGQQRITTLLLINSIINKEIKSGIQYTSTTSINNIKRNFSYLKSVHAKDVFDYADTEVLNYIDFDKINVTLVVTATEDLAYTFFETQNTGGVRLSGSDIIKAHHLRAISSEKNINYQARKWEGIESEKIESIIQNLTKIRFWDNRNWRRFPFYRDEKGIKEVLIEEFTENTKHDKEDISFYYSAVKMEAGRAFQMHESNYKQLKQPLSDGNNTLDYINDYVHLHDVLFNRSKKDYRVSDAFYDFNEKLMHGNSGTLFLKELLEICIITYVSRFGFYRLFEASLWLYRSIYSLRVSSSRNVREDSIFKFVFENQFIDNIIEVYTVDELILYLKRFKYTFNTDNLGVKESKDKHIGSLNNYFNEFGKTEDFKKTPKAFDKAFLTAIVTKIKENNEQ | not soluble
2 | QVINTFDGVADYLQTYHKLPDNYITKSEAQALGWVASKGNLADVAPGKSIGGDIFSNREGKLPGKSGRTWREADINYTSGFRNSDRILYSSDWLIYKTTDAYQTFTKIRSSSMGVCPKILKKCRRDSDCLAGCVCGPNGFCGS | soluble
3 | SMQAARLAKALRELGQTGWYWGSMTVNEAKEKLKEAPEGTFLIRDSSHSDYLLTISVKTSAGPTNLRIEYQDGKFRLDSIICVKSKLKQFDSVVHLIDYYVQMCKDKRTGPEAPRNGTVHLYLTKPLYTSAPSLQHLCRLTINKCTGAIWGLPLPTRLKDYLEEYKFQV | soluble
4 | MGSDKIHHHHHHVRVTSSSGSCITIPTGVTNVTIRDSEIGPCGQPGDTSAKGIDIQSGASNITVQRNYIHDMATALYAAGARHPIIFDRNRVTNIRGPFPRGQMVQFNGVKSGTSGSKVTCNVSDVQGATYSNVEDHINMYDSGGLSNDRTEIAYNRLRGGSPTSNSGTAIMVGDGASGGNAWVHHNTIVNVRNVGIGVAGGTNIDVESNRIYMDRAATYTNVGLYVWSQGGGSCSGHSVTGNRAWVNSSNGAQNPWWNGGNCGAVELVSNVWGDTSLSSSMFNEVPSQCQ | not soluble
5 | MIIPLVFLIGFAAAGNFGSSSSESCEDGNGGGRPRPGNGGGRPPGNGNGNGNGGGRPTNGGCDAGWRRFNRPNGGWCVRVFGARMTQADAQIQCQSYGATLSSLQNMEEALQINNMALSVIKANTGSVWIGAKRTTACLKQWLWTNGCGRQNSFAWTDGSATGVAGFVWDNLQPDNDELKQPCAVMLAARAAVTWGGKFWQPAMLDDNNCMFDLEGKHPRSVYGYVCGKNSRA | not soluble
6 | MGSDKIHHHHHHMTIALTGGGTGGHLAIVRCLLESAIKKNIECVYIGSQNGQDKAWFENEVRFKEKFFLSSKGVVNQSKFDKISSLLHTLKLSKDCREIFKKYHIQAVFSVGGYSAAPASFAALFSHLPLFIHEQNSKSGSLNMLLKPFATKFFSAFEKEISPYPVADKFFDNARIRKELKNIIFLGGSQGAQFINELALNLAPKLQEQNIKIIHQCGKNDFEKCKKHYQSLNIQADIFDFSLNLEEKMKNADLAISRAGASTLFELCANTLPTIFIPYPYAAKNHQYFNAKFLQDQALCQIFMQNSINLDEFFKSILKLNLENISTRLQNITQKNGADMLIQKALFDNLTFIR | not soluble
7 | MSKGEKMKIKVGVLGATGSVGQRFVQLLADHPMFELTALAASERSAGKKYKDACYWFQDRDIPENIKDMVVIPTDPKHEEFEDVDIVFSALPSDLAKKFEPEFAKEGKLIFSNASAYRMEEDVPLVIPEVNADHLELIEIQREKRGWDGAIITNPNCSTICAVITLKPIMDKFGLEAVFIATMQAVSGAGYNGVPSMAILDNLIPFIKNEEEKMQTESLKLLGTLKDGKVELANFKISASCNRVAVIDGHTESIFVKTKEGAEPEEIKEVMDKFDPLKDLNLPTYAKPIVIREEIDRPQPRLDRNEGNGMSIVVGRIRKDPIFDVKYTALEHNTIRGAAGASVLNAEYFVKKYI | soluble
8 | MAQFSIFPEQNSLQDLLNIHSVQEDTQYKSMGIYDLKTCEIPMRPPTHQNPAQKEHNTMEDEMMAVLNSFSRRIEIMSAPEPKAFRYYFEISPPPKPEAPKSQLGLGDLSEESYPLTPEPIQLDTCLTWSPVELQFDPFAEPEPIFYNEEMDSGPTPEPIPDIFESPRSEVEAVKMFRSEVIYEDFAEE | not soluble
9 | GLISDIIACPGMDYCALATARSIPVAQEIATRFEELKLEHEIGALKIKISGCINACGHHHVGHIGILGLDRAGVENYQITLGGDATETAAIGERTGPGFAYDQIVPAVERIVETYLDQRRDREESFIETYRRVGMAPFKAALYPE | not soluble
10 | SNADDMIILKGVNIFPIQIETILLQFKELGSDYLITLETAESNDEMTVEVELSQLFTDDYGRLQALTREITRQLKDEILVTPRVKLVPKGALPKSEGKAVRVKDLRKTF | soluble
11 | MSAEVTLHDNIHYDLSADCQHCFGLCCVALPYAKSADFAFDKDGGTPCRNLQSNYQCSIHKDLREKGFRGCSAYECFGAGQKVSQITYEGKDWRNSPETANQMFDVFPIMQQLHEMLWYLHEALSIDIAKPIHSELRTTFEKIERLTRLSKERLLTLQVDEHRAEVNEWLLKTSELVRAQARHPKLPKKVSRGSVLIGAKLKGLDLRGANLRGALLIAADLRNADLRMTDFIGADMRDADLSGADLTGSIFLTQAQVNAANGDSNTKLPLSVRTPAHWKLEHHHHHH | not soluble
12 | DLAKELFTHKGSGTLIRRGERVIRATTWKDLDLPRLQHLIQSSFRRTLIPHYFETTPLLRAYVSENYRAAVILTKLGNVPYLDKFAVLDDAQGEGLGRAVWSIMREETPQLFWRSRHNNQANAFYYAESDGYYKQDHWKIFWNGLHHFQQIQQCVAHCTQH | not soluble
13 | MAPTMNNGWMDSLSWIKSETPENSVVTCWWDNGHIYTWATRKMVTFDGGSQNTPRAYWVGHAFSTSDENLSVGILRMLATSGDSAYDDDSILIKKTGSIKDTVDILNKILPLTRTEAKASLVNNYDLTDAEAEEVLDLTHPKVTNPDYLITYNRMTSIASVWSMFGNWNFSLPASTENSDREMGLEHHHHHH | soluble
14 | AHPELKSSVPQADSAVAAPEKIQLNFSENLTVKFSGAKLTMTGMKGMSSHSPMPVAAKVAPGADPKSMVIIPREPLPAGTYRVDWRAVSSDTHPITGNYTFTVK | soluble
15 | MKELLKELVEKNRKFTADGNVANYIPELDKADKNALGIYVTTLDGQEFFAGDYNTKFTIQSISKIISLMLAILDNGEEYVFSKVGMEPSGDPFNSIRKLETSSRKKPYNPMINAGAIAVASMIKGKDDREKFSRLLNFAKLITEDDSLDLNYKIYIGESDTGFRNYSMAYFLKGEGIIEGNVNEALTVYFKQCSIEGTAKTISTLGKFLANDGVLSNGERILTTRMAKIIKTLMVTCGMYDSSGEFAVRVGIPSKSGVGGGICSVVPGKMGIGVYGPSLDKKGNSLAGGHLLEDLSAELSLNIFLEHHHHHH | not soluble
16 | KEPSHNSFTFNESLSFTGFSKLDNNTNFNASIVSDDNRAGAMVFGQARYRNHWDANNDGYSELGKIDARSLGAHSYLRLSDYSKLTGEFHTISEFRRGGDRIDLPPHVVGVAEQTDHSVFSGNLKYDLFSSNYKHHFQAYTSGQIVNRKSYYGGIGEIDVNGHPGGTEGYPIPQDQYGNNYGVTKGKTYMGGIQYSYDLDKFLLMPSQLLFGAEYTRDELNDVMPILSWQTGEDANGNTIPLYPELDQNINNYSLFGQNEWKNDRWSILVGARLDKHSEVKDMILSPRTTLRFNVNPDINLRATYAKGFRAPQVFDEDLHVGVVGGEAQKVFNDPNLKPEISHAFSLSADMYHRFGNVQTNFLVEGFYTRLLDVFTNEEQPDQHDGIKRYTRINGSGAKVFGLNLEGKVAYKSFQLQAGLTLASNKYDEAQEWGLNTVKDTNGAFVTEANANGQQEYKNESMTDTQITRTPSVYGYFTLAYNPAHSWNIALTGAYTGQMYVPHAIEYGVKSAELDIMQNNPEITDETGKAPRIDELKKTPAFFDLGLKVGYDFHVFQATEVQLYVGMNNIFNSFQKDFDRGAARDSGYIYGPTQPRTGYMGLVVKF | not soluble
17 | MDFESNGAMMEYCKSTGRTYCAFSIQQSSKLLGTVVLELFTDIAPATCANFIKYIKDGYQGTPLHRIVPNGWVQGGDIVDGSGKGDPGFVLPDETYSVKHDAPGVLGMATGGQPHTANTQFYISLSPLPFLDGKRVAFGRVLNKQSLENLLALQTLPTFQNERPVPDVVIASCHVIYNPNS | not soluble
18 | VEAHPSLTLFSQLRIEHEDMAIAEDDWAWLRHKGHLRLGAALDETSPFNVRLDDENYEGITADVATLVGQLLGMRIKVVSFDTHADAVAALAAGKIDLLGSHYSSAGDSSLVLSQPYARDRLAVFKRMGEKRNSPEDLAGLSVAVAREHVGELRQRFPRARFVVFGSHDEAVAAVAFGHTDLYLDDVLSAYHRINRSYYGYVRFERFADARLEGGYGFLLRRGDTNLLRVVNSAIGAINQDRLESIARRWVGSGSLPTGQRIALTPQESRWIARHPVVRLVINDDLAPLAFFNSDETFSGIASDLLDMISRRTGLHFQVTPRSGGFPEQIGVLARKEADLAIMSRSSKREEMLRFTRSFLSTSYVLVTRADDKGRAEIPGSLDGKRIAIPAGHVGMQQVRERYPQASMVEVGVALDAMNLVYEGRADAAVVPLVTARYYIVRLFRERLAIADLVPIGAATAHFAVRRGDAELQSILDKALLSISPDDLSDIVNRW | not soluble
19 | MFLPVLDSLPSDYDLLRKTYSRMKLEWSTHDLISHCVQEEERLTNEKKEHDLVAGKVICDKKRKQYDECLEAVLGN | soluble
20 | MTNKLTSLTIAFVGALSSMGAQAHGWVEYPSARQNTCYLDGGFWDNTIPNQACQAAYDESGAFPFVQRNEVAANVPNYQDMAHVQAIVRDGHLCSAGDAAKSGLNLGSLHWQKTAIALDANNQIELIFNATAPHNPSYWQFYLSNENYDPTVPLTWGDLVLIDTAGNVPVGEDKKYRIKITLPADRSDSAVLYTRWQREDAAGEGFYNCSDISFNGSGTTPPKPTDPVEPPQYSDLGYYINQGFGPVESGDTVRFRTFDSTGAETTDISLAITANNTSTWSAELAGQFNQLKNKEWFIGIWHQEMNHYMYDSNNIYANKVFAPTANVSYQLSLIKADITPPVEPPVEPSNPWDKTATYNAGDIVDHNGKAWVAQWWTKGEEPGTTGEWGVWR | not soluble
21 | MFSLLRKSLKSPAPKKVVPSQRTVSVAGRQVPITVRENPRATRITLRIEPGGRALKLTIPMGLHHRQVDDFLERHQGWLEGKLLKFSPDDGLRPGATIDIRGISHRIEHTGSLRGLTHIAKDADGVAVLKVSGAPEHLRRRIATFLKKEAKADLERLVAIHGRAAGRPVRSISMKDTRSRWGSCSHDGNLSFSWRIVMAPDRVIDYLAAHEVAHLSEMNHGPKFWALCEKLCPHTSEAKDWLKRHGSKLHAIDFDLEHHHHHH | not soluble
22 | MAHHHHHHMTKVWMPWAYQALLAYAHSGAAHGQANLWLKGQTSTPLQRICDPVPNLLISQSSQGGQRALWLLHRPESVLGLVVSPQWQGESGDHELCDASVVSKRKIVRVMKHLHSLPFRVAGSSPLRPPMVVHKNHLVGWRIDGKAAPLYAHTLDQLAKLKPTQFKTIEPKNAFICRTYYEWDNWKEVSMEPGWTWHHVDEEIANNILDGTLTFDGLRATATDTP | not soluble
23 | MLERIKSGVIGLDEILGGGFIKNTVNAVVGGMGCGKTIFCMNYLLEGLENGEKCMYASPDLDVDEFLRLAESMHWDFSKYIDNGQLNIMTVVAEDAASFIKMAFEYDRVAVDALSPLVIDVEAGSRKEIGWLLKNLKSKGTALITVEEPLRQNADLLLLLADSVISLRYTGYGGPFSRTLRVLKHRMSWHGDGVYPFYIIEGAGIVIDEKRGEGFELEEEMNLPERAKEKIAEMCKKGTLTLEDISKIKRRIP | not soluble
